These results are taken from PMC6441893.

This assay addresses biotinylated histone H3 peptide acetylated at K14 (residues 1-21). In words: BLI; biotinylated H3 or H3K14ac peptide (25 nM) immobilised on streptavidin sensors; BD proteins at 1 or 2 uM; 25 °C; 20 mM Tris pH 7.5, 300 mM NaCl, 1 mM TCEP, 1 uM ZnCl2, 10% glycerol, 0.5 mg/mL BSA; apparent Kd from a double exponential fit. On the technique in general: BLI is a label-free optical method that tracks binding on a fibre tip over time.
Regarding “BD2 protein of PBRM1, GST removed (domain or fragment)”, the binding ratio, acetylated versus nonacetylated H3K14 peptide (H3:H3K14ac) is 1.7.
In the case of “BD4 protein of PBRM1, GST removed (domain or fragment)”, the binding ratio, acetylated versus nonacetylated H3K14 peptide (H3:H3K14ac) was 1.5.
In the case of “BD234 protein of PBRM1, GST removed (domain or fragment)”, the binding ratio, acetylated versus nonacetylated H3K14 peptide (H3:H3K14ac) was 6.8.
Regarding “BD245 protein of PBRM1, GST removed (domain or fragment)”, the binding ratio, acetylated versus nonacetylated H3K14 peptide (H3:H3K14ac) is 12.3.
